The IC99 is the concentration at which the effect reaches the 99% level. Low readings indicate an effect from little substance, high ones a need for much substance.

Data set [1] has as its system FXI. The data set is described as follows: FXI clotting assay in vitro (FXI deficient human plasma, NBP dilutions as standards). Format: biochemical, baboon. The conditions noted are these: serial dilutions of NBP as standards.
Data set [2] concerns normal baboon plasma (NBP). The data set can be described thus: aPTT and PT in normal baboon plasma in vitro. The conditions noted are these: 0-40 nM. Format: biochemical.
Data set [3] has as its system recombinant FXI proteins with mutations within the A3 domain. The data set can be described thus: Western blot binding to recombinant FXI A3 domain alanine mutants. The arrangement: species or system human. The conditions noted are these: 2 or 3 adjacent amino acids replaced with Alanine (FIG. 11). The procedure:
Binding studies were also conducted using recombinant FXI proteins involving mutations of different amino acids within the A3 domain to determine amino acids important for the binding of monoclonal antibody 1A6. An example of the binding of monoclonal antibody 1A6 to a panel of 25 such recombinant proteins in which 2 or 3 adjacent amino acids within the A3 domain were replaced with Alanine is shown in FIG. 11. […] Based on such studies, amino acids important for the binding of monoclonal antibody 1A6 to the FXI A3 domain were determined, and are shown in FIG. 12 (amino acids 183 to 197, 203 to 204, 234 to 236, 241 to 243, 252 to 254, and 258 to 260 of SEQ ID NO:1).

Data set [4] concerns the target T1, FXI (Homo sapiens, UniProt P03951).
T1 construct: antibody 1A6 recognizes Factor XI in human and non-human primate plasma; from tissue; host or cells: normal human plasma (A4); whole human blood or reconstituted FXII-deficient human blood (A9)
The data set can be described thus: Flow chamber coagulation studies (blood perfused over collagen). Format: cell-based. The procedure:
Glass capillary tubes were coated with 100 μg/ml Horm collagen (Nycomed Arzenmittel, Munich, Germany). Whole human blood was collected into corn trypsin inhibitor (CTI, 40 μg/ml), discarding the first 1 ml to limit any activation of the coagulation pathway, and then perfused through the tubes at a shear rate of 265 s^−1 for 10 min. […] In separate experiments, washed platelets and RBCs were processed as described (McCarty et al. (2006) J. Thromb. Haemost. 4:1367-1378), and then mixed with FXII deficient human plasma (<1% FXII, Haematologic Technologies, Essex Junction, Vt.) to reach a hematocrit of 40% and platelet count of 300×10^3/μl. […] Recalcified FXII deficient human plasma without RBCs or platelets was also perfused over collagen. Images were obtained by DIC microscopy after three minutes of perfusion with modified Tyrodes buffer.
When whole human blood, which was anticoagulated with CTI to block the function of FXIIa, was perfused over collagen at arterial shear (265 s^−1), platelets were deposited in large aggregates which became enveloped by forming fibrin strands (FIG. 7B). […] The outcome was similar when using reconstituted FXII deficient blood, with or without CTI. […] No fibrin was formed when recalcified FXII deficient human plasma was perfused over collagen. For these experiments, human whole blood, anticoagulated with CTI (40 μg/ml) to inhibit FXIIa, or reconstituted FXII deficient human blood was perfused through collagen coated capillary tubes at a shear rate of 265 s^−1 for 10 minutes. […] Images were obtained via Kohler-illuminated Nomarski differential interference contrast (DIC) microscopy with a Zeiss Axiovert 200M microscope using a Zeiss 63× oil immersion 1.40 NA plan-apochromat lens. Images were captured following three minutes of perfusion with modified Tyrodes buffer using a Zeiss AxioCam with Slidebook 4.0 (Intelligent Imaging Innovations, Inc., Denver, Colo., USA). All experiments were performed at 37° C. Each image in FIG. 7B is representative of 2-3 experiments.

The subject of data set [5] is baboons (Papio anubis). The data set is described as follows: Thrombosis model, collagen coated 4 mm i.d. vascular grafts in AV shunt: platelet and fibrin deposition. Format: in vivo, baboon (Papio anubis). The procedure: A total of 39 non-terminal studies were performed on 17 normal juvenile male baboons (Papio anubis) weighing 9-11 kg. Experiments were conducted on non-anticoagulated awake animals that had chronic exteriorized arterio-venous (AV) shunts previously placed between the femoral artery and vein, as described elsewhere (Hanson et al. (1993) J. Clin. Invest. 92:2003-2012). Baseline shunt blood flow exceeded 250 ml/min in all study animals. Anxiety was managed with low dose ketamine (<2 mg/kg/hr). Platelet counts, red cell counts, and hematocrits were measured daily, before and after the experiments.
Thrombus formation was initiated within the baboon AV shunt by interposing a thrombogenic segment of prosthetic vascular graft (ePTFE, WL Gore & Co., Flagstaff, Ariz.), as previously described (Hanson et al. (1993) J. Clin. Invest. 92:2003-2012). To consistently trigger platelet-dependent thrombus formation, the clinical graft segments were coated with immobilized collagen. Twenty mm long grafts having internal diameters (i.d.) of either 2 or 4 mm were filled with equine type I collagen (1 mg/ml; Nycomed Arzenmittel, Munich, Germany) for 15 min, and then dried overnight under sterile airflow. This method produced a uniform collagen coating within the graft lumen as determined by scanning electron microscopy (FIGS. 1B and 1C). The thrombogenic collagen-coated grafts were then incorporated between segments of silicon rubber tubing, and deployed into the AV shunts (FIG. 1A). The grafts were exposed to blood for up to 60 min. During each experiment, the blood flow rate through the graft was restricted to 100 ml/min by clamping the proximal silicone rubber shunt segment, thereby producing a mean wall shear rate (MWSR) in the 4 mm grafts of 265 s^−1, while in the 2 mm grafts the initial MWSR was 2120 s^−1. Flow rates were continuously monitored using an ultrasonic flow meter (Transonics Systems, Ithaca, N.Y.). […] Baseline blood flow was restored through the permanent shunt after each experiment. In the 2 mm diameter grafts blood flow rates progressively declined due to thrombus formation. The grafts were removed from the AV shunts when the flow rate fell from 100 ml/min to below 20 ml/min, signaling imminent occlusion. The time from initiation of blood flow to graft removal (<20 ml/min blood flow) was taken as the occlusion time.
For imaging of the platelet deposition, autologous baboon platelets were labeled with 1 mCi of ^111In-oxine as previously described (Hanson et al. (1993) J. Clin. Invest. 92:2003-2012). Labeled platelets were infused and allowed to circulate for at least 1 h before studies were performed. Accumulation of labeled platelets onto thrombogenic grafts were measured in 5-min intervals using a gamma scintillation camera. Homologous ^125I-labeled baboon fibrinogen (4 μCi, >90% clottable) was infused 10 min before each study, and incorporation of the labeled fibrin within the thrombus was assessed using a gamma counter 30 days later to allow the ^111In to decay. The radioactivity deposited (cpm) was divided by the clottable fibrin(ogen) radioactivity of samples taken at the time of the original study (cpm/mg).

Data set [6] deals with baboons. The data set is described as follows: Observation for adverse reactions and bleeding events. Format: in vivo, baboon.
Where [7] appears, read: CTI (40 μg/ml) whole human blood, aXIMab 20 μg/ml, collagen, 265 s^-1, 10 min.
Where [8] appears, read: FXII-inhibited or deficient human blood under flow (FIG. 7B).

B1: aXIMab: neutralizing murine IgG/kappa anti-human FXI monoclonal antibody from hybridoma 1A6; binds A3 domain; VH SEQ ID NO:3, VL SEQ ID NO:5 (antibody, listed as Mus musculus, V domains shown)
VH: QVTLKESGPGILKPSQTLSLTCSFSGFSLSTSGMGVGWIRQPSGKGLEWLAHIWWDDDKYYNPSLKSQLTISKDTSRNQVFLKITSVDAADTATYYCARKRSSVVAHYYAMDYWGQGTSVTVSS
VL: DIVLTQSPASLAVSLGQRATISCKASQSVDYDGDSYLNWYQQKPGQPPKLLIYAASNLESGIPARFSGSGSGTDFTLNIHPVEEEDAATYYCQQSNGDPWTFGGGTKLEIK
B1 had a concentration for an effect of 99% (IC99) in data set [1] of 10 nM. For the same molecule, in data set [2], the “prothrombin time (PT)” value was “without affecting”. Besides, the “activated partial thromboplastin time (aPTT)” value in data set [2] (concentration-dependent) is “prolonged”. Besides, in data set [3], the “binding to FXI A3 domain mutants” value is recorded as “did not bind to some mutants”. Besides, in data set [4] (setting [7]), the Fibrin deposition result is recorded as “noticeably attenuated” and the platelet adhesion entry is “modest reduction”. Also, in data set [4] (setting [8]), the platelet accumulation entry is “reduced” and the visible fibrin formation result is reported as “prevented”. In data set [4] (reconstituted FXII deficient human blood, with or without CTI, aXIMab 20 μg/ml), the fibrin formation entry was “interrupted fibrin formation”. Besides, the “End-point fibrin deposition reduced compared with controls” value in data set [5] (4 mm graft) came to 81%. This molecule came in with an End-point fibrin deposition in data set [5] (4 mm graft, control 1.18±0.19) of 0.23 ± 0.07 mg. Also, the platelet accumulation in data set [5] (10 min after graft exposure, 4 mm graft, control 0.23±0.03) was 0.13±0.03 ×10^9 platelets. Also, the “Graft platelet accumulation lower than in vehicle controls” value in data set [5] (60 min, 4 mm graft) is 63%. The Graft platelet accumulation in data set [5] (60 min, 4 mm graft, n=6, control 3.68±0.52) is 1.38±0.26 ×10^9 platelets. For the same molecule, the “Systemic platelet counts, change following thrombosis experiments” value in data set [5] (in vivo) was “did not change significantly”. In addition, in data set [5] (prior to thrombosis studies, control 337±31), the Systemic platelet counts is reported as 341±27 ×10^3/μl. Moreover, the “adverse reactions to the antibody” value in data set [6] (2 mg/kg i.v. bolus, 4 baboons) is listed as “No adverse reactions”. For the same molecule, in data set [6] (one week follow-up periods of observation), the adverse bleeding events entry was “No re-bleeding phenomena, petechiae, hematomas or other adverse bleeding events”.

The values above are taken from patent US10577428B2, “Anti-factor XI monoclonal antibodies and methods of use thereof” (Oregon Health & Science University, priority 2007, dated 2020).
